B1: CPEB3 Ribozyme (parent)
chain: GGGGGCCACAGCAGAAGCGUUCACGUCGCGGCCCCUGUCAGAUUCUGGUGAAUCUGCGAAUUCUGCUGU

Variants of: B1
Assay: self-cleavage, relative activity (ratio to wild type); higher = more cleavage; co-transcriptional

Variant	self-cleavage
C7U C9A	1.05
C7U C9G	1.01
C7U C9U	1.06
C7U C12A	0.555
C7U C18A	0.165
C7U C18U	0.702
C7U C22A	0.103
C7U C22G	0.117
C7U C24A	0.499
C7U C27A	0.289
C7U C27G	0.159
C7U C27U	0.247
C7U C32A	0.436
C7U C32G	0.148
C7U C33A	0.656
C7U C33G	0.245
C7U C33U	0.939
C7U C34A	0.521
C7U C35U	0.947
C7U C39A	0.686
C7U C39G	0.911
C7U C39U	0.803
C7U C45A	0.919
C7U C45G	1.02

Variant	self-cleavage
C7U C45U	0.892
C7U C54A	0.831
C7U C54U	0.967
C7U C57A	0.35
C7U C57U	0.305
C7U C63A	0.577
C7U C63U	0.948
C7U C66G	0.898
C7U G11U	0.715
C7U G14A	0.509
C7U G14U	0.503
C7U G17A	0.175
C7U G17C	0.122
C7U G17U	0.243
C7U G19A	0.113
C7U G19C	0.155
C7U G19U	0.247
C7U G25A	0.144
C7U G25C	0.0703
C7U G28C	0.197
C7U G28U	0.146
C7U G31C	0.222
C7U G31U	0.365
C7U G37U	0.214

Variant	self-cleavage
C7U G41A	0.748
C7U G41U	0.692
C7U G47A	0.954
C7U G47C	0.917
C7U G48A	0.987
C7U G48U	0.966
C7U G50C	0.965
C7U G50U	0.96
C7U G56C	0.618
C7U G56U	0.849
C7U G58A	0.928
C7U G58C	0.873
C7U G65A	0.781
C7U G65C	0.604
C7U G65U	0.612
C7U G68A	0.971
C7U G68C	0.673
C7U U20A	0.112
C7U U20C	0.158
C7U U21A	0.967
C7U U21G	0.34
C7U U26C	1.01
C7U U36A	0.194
C7U U36C	0.806

Variant	self-cleavage
C7U U36G	0.166
C7U U38A	0.774
C7U U38C	0.819
C7U U38G	0.193
C7U U43A	0.828
C7U U43C	0.967
C7U U44C	0.829
C7U U46C	0.973
C7U U49C	0.854
C7U U49G	0.993
C7U U53A	0.861
C7U U53G	0.949
C7U U55A	0.914
C7U U61A	0.805
C7U U61C	0.492
C7U U62A	0.638
C7U U62C	0.725
C7U U62G	0.595
C7U U64A	0.908
C7U U64C	0.794
C7U U67A	0.985
C7U U67C	0.982
C7U U67G	0.959
C7U U69A	1.02

Variant	self-cleavage
C7U U69C	1.06
C7U U69G	1.03
A8C	0.999
A8C A10C	0.975
A8C A10G	0.941
A8C A10U	0.966
A8C A13C	0.927
A8C A15C	0.726
A8C A15U	0.873
A8C A16C	0.325
A8C A16G	0.962
A8C A16U	0.843
A8C A23C	0.907
A8C A23G	0.997
A8C A23U	1.01
A8C A40G	0.958
A8C A40U	0.868
A8C A42G	0.939
A8C A42U	0.918
A8C A51U	1.01
A8C A52C	0.941
A8C A52G	0.974
A8C A59G	1
A8C A59U	0.821

Variant	self-cleavage
A8C A60C	0.382
A8C A60G	0.953
A8C A60U	0.413
A8C C9A	1.01
A8C C9G	0.922
A8C C9U	1.01
A8C C12G	0.798
A8C C12U	0.981
A8C C18G	0.186
A8C C18U	0.88
A8C C22A	0.163
A8C C22G	0.19
A8C C22U	0.22
A8C C24G	0.488
A8C C24U	0.753
A8C C27A	0.555
A8C C27G	0.112
A8C C29A	0.532
A8C C32G	0.227
A8C C32U	0.954
A8C C33A	0.897
A8C C33G	0.527
A8C C34A	0.834
A8C C34G	0.859

Variant	self-cleavage
A8C C34U	0.972
A8C C35G	0.421
A8C C35U	0.976
A8C C39A	0.848
A8C C39G	0.927
A8C C39U	0.947
A8C C45A	1.01
A8C C45U	1.04
A8C C54G	0.876
A8C C54U	1
A8C C57A	0.352
A8C C57G	0.446
A8C C57U	0.357
A8C C63A	0.76
A8C C63U	0.972
A8C C66G	0.871
A8C C66U	1.02
A8C G11A	0.923
A8C G11C	0.779
A8C G11U	0.768
A8C G14A	0.669
A8C G14C	0.528
A8C G17A	0.269
